Among the data in patent US20120156198A1 (Hoffmann-La Roche, published 2012) are EC50 values, retold here.

In experiment [1] the target is T1, cynomolgus IL-18Rα on CHO-K1 cells (cynomolgus, UniProt A0A2K5V3J9 19-540).
T1 construct: whole, on cells; also called CHO CyIL-18Rα
T1 sequence: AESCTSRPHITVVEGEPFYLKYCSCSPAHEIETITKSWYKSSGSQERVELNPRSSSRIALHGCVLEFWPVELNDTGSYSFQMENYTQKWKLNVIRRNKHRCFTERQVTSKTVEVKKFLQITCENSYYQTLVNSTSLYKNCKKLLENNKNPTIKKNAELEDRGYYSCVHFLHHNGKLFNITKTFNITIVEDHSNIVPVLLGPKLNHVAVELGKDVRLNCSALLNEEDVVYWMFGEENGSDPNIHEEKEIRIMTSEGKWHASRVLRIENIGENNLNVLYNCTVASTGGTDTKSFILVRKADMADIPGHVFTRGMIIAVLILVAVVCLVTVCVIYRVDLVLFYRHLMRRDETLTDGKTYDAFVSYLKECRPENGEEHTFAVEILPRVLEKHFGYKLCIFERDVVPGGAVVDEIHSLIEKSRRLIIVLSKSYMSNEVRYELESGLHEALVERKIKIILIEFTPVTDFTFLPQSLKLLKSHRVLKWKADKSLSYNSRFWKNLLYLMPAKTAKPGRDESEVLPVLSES
Briefly: cell ELISA on CHO-K1 cells expressing cynomolgus IL-18Rα. The procedure: (§1) The recombinant cell lines CHO-K1 expressing cynomolgus IL-18Rα or cynomolgus IL-18Rα+β were stained with the Mab_IL-18R antibodies in a cell ELISA. Controls are CHO-K1 untransfected cells. Cells were grown in F-12 medium (GIBCO) with Glutamax-1 (GIBCO Cat. No. 31331-028)+10% FCS (PAN Cat. No. 2802-P920707). For cultivation of the recominant cell lines 250 μg/ml G418 (Geneticin, GIBCO, Cat. No. 10131-019) was added. As control antibody anti hIL-18Ralpha Antibody Mab840 (Mouse monoclonal IgG1 from R&D Systems, Cat. MAB 840) and as detection antibody goat anti-mouse IgG (H+L)-HRP conjugate (BioRad) was added. For running the assay, on day 1 2×10⁴ CHO_CynoIL-18Rα, CHO_CynoIL-18Rα+β or untransfected CHO cells in 50 μl F-12/well were seeded in a 96-well plate and incubated overnight at 37° C. On day 2, 50 μl supernatant or (2×) purified antibody diluted in medium or 50 μl Hybridoma supernatant were added and incubated for 2 h at 4° C. Supernatant was aspirated and 100 μl/well Glutaraldehyde fixing solution (25% stock solution Grade EM; final concentration=0.05% in PBS) was added and incubated for 10 minutes at room temperature. For washing 2 times 200 μl PBS/well/wash was added and removed. 50 μl of ELISA detection-antibody diluted in ELISA blocking reagent (ELISA blocking stock reagent diluted 1:10 in PBS) was added. […] The plates were measured at 450 nm-620 nm using an ELISA reader (TECAN).
In general terms: An ELISA detects its analyte on a solid surface through an enzyme-linked reagent.

Experiment [2] has as its target T2, cynomolgus IL-18Rα/IL-18Rβ on transfected cells (cynomolgus, UniProt A0A2K5V3J9 19-540; A0A7N9D6S0 20-598).
T2 construct: whole, on cells; also called CHO CyIL-18Rα + β
T2 sequence 1: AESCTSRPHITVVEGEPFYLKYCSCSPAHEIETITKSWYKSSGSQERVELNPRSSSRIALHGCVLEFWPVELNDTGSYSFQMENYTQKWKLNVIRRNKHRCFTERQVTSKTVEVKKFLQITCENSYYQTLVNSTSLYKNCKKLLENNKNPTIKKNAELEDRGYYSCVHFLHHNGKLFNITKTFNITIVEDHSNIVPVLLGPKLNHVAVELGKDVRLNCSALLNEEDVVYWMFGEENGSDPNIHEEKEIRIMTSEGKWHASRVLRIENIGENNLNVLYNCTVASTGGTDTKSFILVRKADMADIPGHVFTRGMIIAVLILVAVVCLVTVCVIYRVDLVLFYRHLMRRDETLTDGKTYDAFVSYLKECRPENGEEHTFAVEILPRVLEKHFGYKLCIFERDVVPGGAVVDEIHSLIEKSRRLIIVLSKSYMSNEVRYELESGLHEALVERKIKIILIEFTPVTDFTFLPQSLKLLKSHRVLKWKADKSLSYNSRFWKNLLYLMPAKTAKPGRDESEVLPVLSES
T2 sequence 2: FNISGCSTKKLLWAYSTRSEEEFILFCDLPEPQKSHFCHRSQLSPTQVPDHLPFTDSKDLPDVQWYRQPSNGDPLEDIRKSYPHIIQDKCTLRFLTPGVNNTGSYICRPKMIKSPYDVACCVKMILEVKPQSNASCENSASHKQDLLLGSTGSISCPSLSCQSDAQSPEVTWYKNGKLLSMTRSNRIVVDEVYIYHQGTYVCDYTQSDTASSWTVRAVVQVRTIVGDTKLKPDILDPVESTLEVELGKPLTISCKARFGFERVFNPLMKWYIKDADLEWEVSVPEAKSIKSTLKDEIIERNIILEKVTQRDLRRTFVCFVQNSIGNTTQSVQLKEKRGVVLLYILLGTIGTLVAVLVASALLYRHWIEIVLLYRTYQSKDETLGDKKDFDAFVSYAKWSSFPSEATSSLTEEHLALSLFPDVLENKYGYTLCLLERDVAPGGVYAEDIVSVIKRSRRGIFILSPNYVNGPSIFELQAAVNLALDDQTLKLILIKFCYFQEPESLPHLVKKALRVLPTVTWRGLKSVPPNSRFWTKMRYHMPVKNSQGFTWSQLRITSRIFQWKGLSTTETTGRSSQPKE
Briefly: cell ELISA on CHO-K1 cells expressing cynomolgus IL-18Rα+β. The protocol: as §1

B1: Mab 1G12 (antibody, V domains shown)
VH: QVQLQQPGAELVKPGASVRMSCKTSDYTFTSNWMHWVKQRPGQGLEWIGTIDPSDSYTYYNQKFKGRATLTVDTSSSTAYMQLSSLTSEDSAVYYCTTSGDYDADRYFDVWGAGTTVTVSS
VL: DIVLTQSPASLGVSLGQRATISCRASKSVSTSGDSYMHWYQQKPGQSPKLLIYLASNLESGVPARFSGSGSGTDFTLNIHPVEEEDAATYYCQQSRELPLSFGAGTKLELK
notes: Monoclonal antibody from immunized NMRI mice; detected with anti-mouse IgG1-PE / anti-mouse IgG; also called F20.1G12; monoclonal antibody 1G12
Broadly, the EC50 is the midpoint of the concentration-response curve. Low readings indicate higher potency in that assay, high ones lower potency in that assay. B1: the concentration giving a half-maximal response (EC50) turned out to be 0.0186 µg/mL in experiment [1] and 0.015 µg/mL in experiment [2].
